Reference: publication PMC5492076, “β-Cyanoalanine Synthases and Their Possible Role in Pierid Host Plant Adaptation” (Insects, 2017)

Columns and labels:
Assay in all cases: colorimetric sulfide formation, Michaelis-Menten fit
[1] = substrate: N[C@@H](CS)C(=O)O; assay type: biochemical, Spodoptera littoralis; settings: 6 mM KCN, 20 µM pyridoxal-5'-phosphate, Tris-HCl pH 8.5, 31 °C, 10 min
From the text: colorimetric sulfide formation, Michaelis-Menten fit on SlBSAS2b

[2] = substrate: N[C@@H](CS)C(=O)O; assay type: biochemical, Anthocharis cardamines; settings: 6 mM KCN, 20 µM pyridoxal-5'-phosphate, Tris-HCl pH 8.5, 31 °C, 10 min
From the text: colorimetric sulfide formation, Michaelis-Menten fit on AcaBSAS2

[3] = substrate: N[C@@H](CS)C(=O)O; assay type: biochemical, Gonepteryx rhamni; settings: 6 mM KCN, 20 µM pyridoxal-5'-phosphate, Tris-HCl pH 8.5, 31 °C, 30 min
From the text: colorimetric sulfide formation, Michaelis-Menten fit on GrBSAS2

[4] = substrate: N[C@@H](CS)C(=O)O; assay type: biochemical, Aporia crataegi; settings: 6 mM KCN, 20 µM pyridoxal-5'-phosphate, Tris-HCl pH 8.5, 31 °C, 10 min
From the text: colorimetric sulfide formation, Michaelis-Menten fit on AcrBSAS2

[5] = substrate: N[C@@H](CS)C(=O)O; assay type: biochemical, Zygaena filipendulae; settings: 6 mM KCN, 20 µM pyridoxal-5'-phosphate, Tris-HCl pH 8.5, 31 °C, 10 min
From the text: colorimetric sulfide formation, Michaelis-Menten fit on ZfBSAS2

[6] = substrate: N[C@@H](CS)C(=O)O; assay type: biochemical, Colias croceus; settings: 6 mM KCN, 20 µM pyridoxal-5'-phosphate, Tris-HCl pH 8.5, 31 °C, 10 min
From the text: colorimetric sulfide formation, Michaelis-Menten fit on CcBSAS2

[7] = substrate: N[C@@H](CS)C(=O)O; assay type: biochemical, Plutella xylostella; settings: 6 mM KCN, 20 µM pyridoxal-5'-phosphate, Tris-HCl pH 8.5, 31 °C, 10 min
From the text: colorimetric sulfide formation, Michaelis-Menten fit on PxBSAS2

[8] = substrate: N[C@@H](CS)C(=O)O; assay type: biochemical, Anthocharis cardamines; settings: 6 mM KCN, 20 µM pyridoxal-5'-phosphate, Tris-HCl pH 8.5, 31 °C, 10 min; remark: listed apart in the source
From the text: colorimetric sulfide formation, Michaelis-Menten fit on AcaBSAS1

[9] = substrate: N[C@@H](CS)C(=O)O; assay type: biochemical, Colias croceus; settings: 6 mM KCN, 20 µM pyridoxal-5'-phosphate, Tris-HCl pH 8.5, 31 °C, 10 min; remark: listed apart in the source
From the text: colorimetric sulfide formation, Michaelis-Menten fit on CcBSAS3

[10] = substrate: N[C@@H](CS)C(=O)O; assay type: biochemical, Aporia crataegi; settings: 6 mM KCN, 20 µM pyridoxal-5'-phosphate, Tris-HCl pH 8.5, 31 °C, 10 min; remark: listed apart in the source
From the text: colorimetric sulfide formation, Michaelis-Menten fit on AcrBSAS1

[11] = substrate: N[C@@H](CS)C(=O)O; assay type: biochemical, Spodoptera littoralis; settings: 6 mM KCN, 20 µM pyridoxal-5'-phosphate, Tris-HCl pH 8.5, 31 °C, 10 min; remark: listed apart in the source
From the text: colorimetric sulfide formation, Michaelis-Menten fit on SlBSAS2a

[12] = substrate: N[C@@H](CS)C(=O)O; assay type: biochemical, Anthocharis cardamines; settings: 6 mM KCN, 20 µM pyridoxal-5'-phosphate, Tris-HCl pH 8.5, 31 °C, 10 min; remark: listed apart in the source
From the text: colorimetric sulfide formation, Michaelis-Menten fit on AcaBSAS3

B1: SlBSAS2b (Spodoptera littoralis) (protein)
chain: MAPVEKNLKDEQPKYLKGDIKASALELIGNTPMVALDRLYSGPGRILAKCEFMNPGASIKCRSSLSMINRAIASGELKPGEPVVEITSGNQGCGLAVVCAVLGHPLTLAMSKGNSVQRALHMEALGAKVVRVDQVKGTYGNVTYADVEVVREVCDKLVKDQNAYFVNQFSNEANADAHYESTGPEIWQQTGHHVDAFVAAVGTAGTFMGTSRYLKEQNPNIKAYVVEPAGAEAIAGCEVTKPLHLLQGSGYGLIPDLLKYEFMDGSLSVTDEEAVKYMKLIGEKEGLYVGYTSGANVAAAIKLLESGLVPEDAWVVTVLADTGLKYTPVPEELMK
notes: N-terminal Strep-tag, E. coli BL21(DE3) pLysS; Strep-Tactin purified
In the case of B1, the Km [1] is reported as 1.07 (±0.03) mM and the Vmax [1] is reported as 11.6 µmol/min/mg.

B2: AcaBSAS2 (Anthocharis cardamines) (protein)
chain: MTKENGIPNEIKSSALDLIGETPLLALDRLHPGPGRILVKCEFNNPGASIKCRSAMHMIQEARAKGELKPGQPVLEVTSGNQGVGLAIVCAIYGHPLTATMSKGNSVQRAVHMEALGAKCIRVPQVEGTYGNVTINDVKAAEEEGLKIAKETGAYYVNQFNNDDNANSHYLTTGPEIWRQSGHHVDAFIATVGTAGTFAGTSRYLKEKNPDIQCYVVEPEGSQPIRGCEITKPLHLLQGSGYGCIPNLFKFETMDGTLSVTDEEAVRYKNLVGEKEGLYVGYTSGANVAAAVKLLKSGKLPEDAWVVTPLNDSGLKYTPVPDSLT
notes: as for B1
In the case of B2, the Km [2] is reported as 0.44 (±0.01) mM and the Vmax [2] is reported as 1.76 µmol/min/mg.

B3: GrBSAS2 (Gonepteryx rhamni) (protein)
chain: MAKVNGIHSEIKESALDLIGNTPIVALDRLHPGPGRILAKCEFMNPGASIKCRSSLHMIQVAREKGLLKPGQPVLEVTSGNQGCGLAVVCSVMGHPLTVTMSKGNSVQRAIHMEALGAKCVRVPQVEGTYGNVTLADVKAAEQEGLRIAEETGAYYVNQFSNDDNANSHYCTTGPEIWRQTGHRVDAFVATVGTAGTFAGSSAYLKEKNPKIQCYVVEPEGSQPIRGCPITKPLHLLQGSGYGCIPNSFKFDTMDGTLSVTDEEATRYKNLIGEKEGLYVGYTSGANIAAAVKLLNSGKLPEDAWVVTLLNDSGLKYTPVPESLT
notes: as for B1
B3 was tested, and the Km [3] was 0.37 (±0.00) mM and the Vmax [3] was 0.24 µmol/min/mg.

B4: AcrBSAS2 (Aporia crataegi) (protein)
chain: MAKVNGIKNEIKTSALELIGETPLLALDRLHPGPGRILVKCEFMNPGASIKCRSSLHMIQEARAKGLLKPGQPVLEVTSGNQGCGLAIVCAIYGHPLTVTMSKGNSLQRAIHMEALGAKCVRVPQVEGTYGNVTVNDVNAAEEEGLKIVKETGAYYVNQFNNEDNANSHYLTTGPEIWRQSGHNVDAFVATVGTAGTFAGTSRYLKEKNPNIKCFVVEPEGSQPIKGCPITKPLHLLQGSGYGCIPNLFNFDTMDGTLSVTDEEAVEYKNLIGEKEGLFVGFTSGANVAAAVKLLKSGLIPENSCLVTILNDTGLKYTPVAESLI
notes: as for B1
In the case of B4, the Km [4] is reported as 0.58 (±0.04) mM and the Vmax [4] is reported as 2.09 µmol/min/mg.

B5: ZfBSAS2 (Zygaena filipendulae) (protein)
chain: MSPPVLQHHDEIKSSALELIGNTPIVALDRLYTGPGRILAKCEFMNPGASIKCRSSLYMIQKALDEKLLKPGEPVLEVTSGNQGCGLAVVCAVLQHPLTLTMSKGNSAQRAVHMAALGAKCIRVPQVEGTYGNVTLADVKAAEAEGLRIVEKTGAYYVNQFNNEANTLAHYETTGPEIWRQTGGRVDAFVATVGTAGTFTGTSKYLKEKNPELKAYVVEPQGSEPIKQLPITKPLHVLQGSGYGCIPNLFNYSTMNDTISVTDEESKHYKKLLGTKEGLYVGYTSGANVAAAVKLLESGTLPDDAWVVTTLNDSGLKYSPTPDEIELSD
notes: as for B1
B5 was tested, and the Km [5] was 0.74 (±0.04) mM and the Vmax [5] was 2.99 µmol/min/mg.

B6: CcBSAS2 (Colias croceus) (protein)
chain: MAKVNGIQNEIKESALDLIGNTPIVALDRLHPGPGRILAKCEFMNPGASIKCRSSLHMINKAIEKGLLKPGQSVLEVTSGNQGCGLAVVCSVMGHPLTVTMSMGNSAQRAIHMEALGAKCVRVPQVEGTYGNVTLADVKAAEKEGLRLAEEIGAYYVNQFNNEDNANSHYCTTGPEIWRQTGHRVDAFVATVGTAGTFTGSSRFLKEKNPNIQCYVVEPEGSQPIRGCAITKPLHLLQGSGYGCVPNLFNFETMDGTLSVTDEEASKYMKLIGEKEGLYVGYTSGANVAAAVKLLNSGTLPEDAWVVTLLNDSGLKYTPVPESLSGNSNNANSD
notes: as for B1
B6 was tested, and the Km [6] was 0.75 (±0.06) mM and the Vmax [6] was 1.04 µmol/min/mg.

B7: PxBSAS2 (Plutella xylostella) (protein)
chain: MSTIDGVIDGVHNEVKASALELIGNTPLVALDRLHPGPGRLLVKCEFMNPGASLKDRSSLHMIQDARAEGRLAPGAPVVEITSGNQGCGLAVVCAVLGHPLTLTMSAGNSVQRALHMEALGARCVRVPQVEGRYGSVTFADVEVCEKEGHKIVEETGAFLVNQFHNPSNSLSHYKMMGPEIWRQTGGRVDGFVATMGTGGVFTGTSRFLKEQNKDVKTYVVEPAGAEVIKGDAITKPLHLLQGSGYGYVPSLFDRSLLDGTLAVTDEETLEYRRLIGEKEGLFVGYTSAANVAAAARLLRSGQLPPDAWVVTILCDTGLKYC
notes: as for B1
B7 was tested, and the Km [7] was 0.52 (±0.04) mM and the Vmax [7] was 3.72 µmol/min/mg.

B8: AcaBSAS1 (Anthocharis cardamines) (protein)
chain: MGQACEKQTDIRASAIELIGNTPLVALDRLHPGPGRILAKCEFMNPGGSIKCRASLHMIQKARLRGTLKPGDPVVEATSGNQGCGLAVACAVLGHPLTLTMSKGNTVQRAIHMEALGAKCIRVPQVEGTYGNVTNADLMAAKDEAISFHEKTGAFFVKQFVNEDNVEAHYTTTGPEIWYQTGNRVDAFVTAVGTSGTFMGVSKYLKKQNPKIRCYVVEPEGCEPIKGKPITKASNTLQGSSYGVIPDLFKFEYMNETITVTDEEAEEYRDLIGSKEGLYVGYTSGANVCAAVKLLKSGKLPKNAWVVTILFDTGLKYTPVPESLM
notes: as for B1
With B8 the Km [8] was 0.41 (±0.01) mM and the Vmax [8] was 23.8 µmol/min/mg.

B9: CcBSAS3 (Colias croceus) (protein)
chain: MTSSTNFPTDIKSSALELIGNTPLVALDRLHPGPGRILAKCEFMNPGASIKCRSSLHMIQKARERGDLKPGDPVIEVTSGNQGCGLAVVCAVLGHPLTLTMSKGNSVQRAIHMEALGAKCIRYPQVEGTYGNITYADVSIPIEAAVTLAEETGAYFVQQLCNEDNSAAHYEATGPEIWRQTGHRVDGFVTAVGTSGTFSGVSKFLKEQNPEILCCVVEPAGSEPLKGCPIVKPKHLLQGSSYGIVPNLFKPEFMDESISVTDEETEHYKDLIGKKEGLYVGYTSGANVAAAVKLLKSGKLPKDAWVVTVLCDSGLKYTPVPESLIN
notes: as for B1
With B9 the Km [9] was 1.50 (±0.08) mM and the Vmax [9] was 0.43 µmol/min/mg.

B10: AcrBSAS1 (Aporia crataegi) (protein)
chain: MGQTCEKQTDIRSSALELIGNTPLVALDRLYPGPGRLLAKCESMNPGGSIKDRASYHMIKKARLRGELKPGDPVIEATSGNQGCGLAVSCAVLGHPLTLTMSKGNTVQRAIHMEALGATCVRVPQVEGTYGHVTNADLMVVKKEAIVLQQKTGAFFVNQFLNEDNVEAHYISTGPEIWHQTAGRVNAFVTAVGTSGTFMGVSRFLKKQNPKIQCYVVEPEGCEPIKGKPIIKASNTLQGSSYGLVPDLFKYEVMSETITVTDEEAQEYMHLIGKKEGLYVGYTSGANVCAAVKLLKSGKLSKKAWVVTILFDTGLKYTPVPSLM
notes: as for B1
B10 was tested, and the Km [10] was 0.26 (±0.00) mM and the Vmax [10] was 14 µmol/min/mg.

B11: SlBSAS2a (Spodoptera littoralis) (protein)
chain: MAPIEKDEQPKYLEGDIKASALELIGNTPLVALDRLYTGPGRILAKCEFMNPGASIKCRSSLSMINRAIASGELKPGEPVVEITSGNQGCGLAVVCAVLGHPLTLAMSKGSSAQRALHMEALGAKCVRVDQVEGTYGNVTYADVKAVEEVGMKIVEEQNAYFVNQFHNEANADAHYKSTGPEIWKQTGHHVDAFVATVGTSGTFAGTSRYLKEQNPDIKTYVVEPAGAEAIAGCPITKPLHLLQGSGYGWIPDLFKFEHMDGTLSVTDEEAVKYMKLVGEKEGLYVGYTSGANVAAAVKLLESGLIPEDAWVVTLLNDTGLKYTPVPEELFK
notes: as for B1
With B11 the Km [11] was 0.60 (±0.01) mM and the Vmax [11] was 1.44 µmol/min/mg.

B12: AcaBSAS3 (Anthocharis cardamines) (protein)
chain: MSDSNGIPNEIKASALDLIGNTPLVALDRLHPGPGRILAKCEFMNPGGSIKCRSSLHMIQKARERGELKPGGSVVEVTSGNQGCGLAVVCAVLGHDLTVTMSKGNSIQRVIHMEALGAKCIRYPLVQGTYGNVTFADVEEALEAATNMSEESGAFFVKQFCNLENEEAHYVTTGPEIWRQTGHRVDAFVTAVGTSGTFSGVSTFLKEQNPDVKCFVVEPEGSQPLKGCPITKPLHLLQGASYGIIPDLFKPDLMEDSISVTDKEAVHYKDLIGTKEGLFVGYTSGANVAAAVKLLNSGKLPKDAWVVTTLCDTGLKYTPVPESLIE
notes: as for B1
B12 was tested, and the Km [12] was 0.96 (±0.04) mM and the Vmax [12] was 1.41 µmol/min/mg.
